Data from publication PMC5779698, “Identification and analysis of OsttaDSP, a phosphoglucan phosphatase from Ostreococcus tauri” (PLoS ONE, 2018).
One block for each molecule: values may come before it.

Tests used:
[1] = target: OsttaDSP, dual specific phosphatase from Ostreococcus tauri, mature protein lacking the chloroplast transit peptide (Ostreococcus tauri); test: SEC; HiPrep Sephacryl S-300 High-Resolution column, calibrated with a molecular weight kit; affinity-purified mature OsttaDSP, single peak of an estimated 54.4 kDa
[2] = substrate: O=[N+]([O-])c1ccc(OP(=O)(O)O)cc1; test: purified protein; format: biochemical, Ostreococcus tauri; details: pH 7, 37 °C, 2 mM DTT, hyperbolic saturation

stoichiometry N [1]: 2
Molecule: OsttaDSP, dual specific phosphatase from Ostreococcus tauri, mature protein lacking the chloroplast transit peptide (enzyme)

B1: OsttaDSP (Ostreococcus tauri) (protein)
chain: ATTTTRRGLADDDAYNAAMRAYSASPYEYKHDIGLYYHRIKPFLIVGTQPQTPADVDRLRETEGVTCVFNTQQEKDWKYWNVDYDSVRARAIETGMRHVRYPFEDFSADSLREGLPSAAAMLDAEIERGETVYLHCTAGMGRSPGLAIAYMYWFLDAYNTLDGAYEGLTSIRPCGPKKESIRGATCDLLAAIESDGKVEPLKRELEENEGVVLSIVSKERIQRAVRAMLLSTSDETVAKPWWKVW
notes: mature protein lacking the first 26 residues (predicted chloroplast transit peptide), 245 residues, N-terminal His6 tag kept, synthetic gene, pRSFDuet-1, E. coli BL21(DE3) pLys; homodimer
K0.5 [2]: 22.7 ± 3.4 mM
